Experimental data: paper PMC9569509, “Collagen Type XI Inhibits Lung Cancer-Associated Fibroblast Functions and Restrains the Integrin Binding Site Availability on Collagen Type I Matrix” (International Journal of Molecular Sciences, 2022)

Molecular target: bovine collagen type XI (bovine, UniProt Q28083 279-911; Q32S24 28-1736; P02459 182-1487, Triple helix of alpha1(XI), alpha2(XI) and alpha3(XI), the last being the COL2A1 product; hydroxyproline and glycosylated hydroxylysine. Purchased tissue collagen (Chondrex); limits not given, and t)
Sequence (Q28083 279-911, chain 1 of 3): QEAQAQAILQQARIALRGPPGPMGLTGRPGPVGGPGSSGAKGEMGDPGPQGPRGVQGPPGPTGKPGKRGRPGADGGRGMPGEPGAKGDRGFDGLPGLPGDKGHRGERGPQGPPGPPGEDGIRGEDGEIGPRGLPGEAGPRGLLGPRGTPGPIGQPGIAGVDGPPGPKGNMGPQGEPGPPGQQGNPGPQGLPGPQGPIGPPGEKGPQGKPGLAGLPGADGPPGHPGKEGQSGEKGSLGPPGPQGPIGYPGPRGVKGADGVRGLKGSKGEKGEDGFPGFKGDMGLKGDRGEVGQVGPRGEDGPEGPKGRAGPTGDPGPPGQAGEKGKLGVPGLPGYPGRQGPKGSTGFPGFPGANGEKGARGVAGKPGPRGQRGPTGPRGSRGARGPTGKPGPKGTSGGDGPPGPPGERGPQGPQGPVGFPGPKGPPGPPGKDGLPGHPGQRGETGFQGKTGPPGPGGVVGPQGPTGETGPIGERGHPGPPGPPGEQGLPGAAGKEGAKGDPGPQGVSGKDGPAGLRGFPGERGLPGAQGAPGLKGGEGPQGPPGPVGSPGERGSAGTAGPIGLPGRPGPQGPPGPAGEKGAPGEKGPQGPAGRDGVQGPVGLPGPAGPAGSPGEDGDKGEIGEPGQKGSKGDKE
Sequence (Q32S24 28-1736, chain 2 of 3): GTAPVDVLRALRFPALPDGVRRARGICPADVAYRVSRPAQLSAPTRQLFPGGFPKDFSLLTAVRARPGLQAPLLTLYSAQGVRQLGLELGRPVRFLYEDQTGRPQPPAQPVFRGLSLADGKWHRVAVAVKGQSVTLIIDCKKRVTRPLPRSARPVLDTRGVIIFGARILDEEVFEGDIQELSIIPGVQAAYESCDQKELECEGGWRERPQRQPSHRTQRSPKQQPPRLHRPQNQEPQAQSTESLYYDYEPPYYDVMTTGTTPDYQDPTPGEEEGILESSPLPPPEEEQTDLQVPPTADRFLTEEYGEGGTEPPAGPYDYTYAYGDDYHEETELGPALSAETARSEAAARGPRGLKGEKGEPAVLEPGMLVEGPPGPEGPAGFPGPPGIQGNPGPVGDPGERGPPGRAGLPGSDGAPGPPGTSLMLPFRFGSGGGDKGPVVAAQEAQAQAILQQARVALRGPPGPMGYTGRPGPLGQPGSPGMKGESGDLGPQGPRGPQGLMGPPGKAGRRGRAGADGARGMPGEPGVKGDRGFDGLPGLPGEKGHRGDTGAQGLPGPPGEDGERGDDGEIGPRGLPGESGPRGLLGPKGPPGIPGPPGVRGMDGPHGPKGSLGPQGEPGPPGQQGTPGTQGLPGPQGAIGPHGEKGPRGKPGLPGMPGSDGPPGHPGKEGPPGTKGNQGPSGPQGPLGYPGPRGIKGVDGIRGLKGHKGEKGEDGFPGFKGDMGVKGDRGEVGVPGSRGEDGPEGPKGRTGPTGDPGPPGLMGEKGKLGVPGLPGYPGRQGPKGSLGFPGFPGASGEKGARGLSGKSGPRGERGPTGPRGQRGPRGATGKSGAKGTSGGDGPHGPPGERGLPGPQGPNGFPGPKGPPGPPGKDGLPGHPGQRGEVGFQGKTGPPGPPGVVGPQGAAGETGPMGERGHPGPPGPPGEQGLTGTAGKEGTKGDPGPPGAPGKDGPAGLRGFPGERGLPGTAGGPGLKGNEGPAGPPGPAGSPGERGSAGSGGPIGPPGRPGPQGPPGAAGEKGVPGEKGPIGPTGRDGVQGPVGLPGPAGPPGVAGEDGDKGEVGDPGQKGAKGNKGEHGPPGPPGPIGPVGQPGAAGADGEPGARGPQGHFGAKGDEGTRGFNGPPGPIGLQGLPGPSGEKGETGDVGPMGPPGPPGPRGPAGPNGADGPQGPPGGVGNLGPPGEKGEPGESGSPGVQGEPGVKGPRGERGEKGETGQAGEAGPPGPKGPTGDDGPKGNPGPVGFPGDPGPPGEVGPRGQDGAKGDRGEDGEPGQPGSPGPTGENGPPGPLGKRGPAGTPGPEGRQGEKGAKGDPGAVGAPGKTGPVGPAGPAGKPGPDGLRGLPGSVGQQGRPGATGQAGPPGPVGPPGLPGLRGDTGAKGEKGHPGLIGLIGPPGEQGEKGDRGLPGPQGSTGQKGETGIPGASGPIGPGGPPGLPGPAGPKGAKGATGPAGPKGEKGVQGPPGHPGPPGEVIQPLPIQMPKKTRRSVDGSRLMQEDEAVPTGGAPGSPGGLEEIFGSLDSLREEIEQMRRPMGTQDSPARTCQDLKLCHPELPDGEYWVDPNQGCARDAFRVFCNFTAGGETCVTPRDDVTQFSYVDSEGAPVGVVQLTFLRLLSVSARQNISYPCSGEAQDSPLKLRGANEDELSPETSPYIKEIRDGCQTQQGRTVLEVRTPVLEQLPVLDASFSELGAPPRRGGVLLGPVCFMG
Sequence (P02459 182-1487, chain 3 of 3): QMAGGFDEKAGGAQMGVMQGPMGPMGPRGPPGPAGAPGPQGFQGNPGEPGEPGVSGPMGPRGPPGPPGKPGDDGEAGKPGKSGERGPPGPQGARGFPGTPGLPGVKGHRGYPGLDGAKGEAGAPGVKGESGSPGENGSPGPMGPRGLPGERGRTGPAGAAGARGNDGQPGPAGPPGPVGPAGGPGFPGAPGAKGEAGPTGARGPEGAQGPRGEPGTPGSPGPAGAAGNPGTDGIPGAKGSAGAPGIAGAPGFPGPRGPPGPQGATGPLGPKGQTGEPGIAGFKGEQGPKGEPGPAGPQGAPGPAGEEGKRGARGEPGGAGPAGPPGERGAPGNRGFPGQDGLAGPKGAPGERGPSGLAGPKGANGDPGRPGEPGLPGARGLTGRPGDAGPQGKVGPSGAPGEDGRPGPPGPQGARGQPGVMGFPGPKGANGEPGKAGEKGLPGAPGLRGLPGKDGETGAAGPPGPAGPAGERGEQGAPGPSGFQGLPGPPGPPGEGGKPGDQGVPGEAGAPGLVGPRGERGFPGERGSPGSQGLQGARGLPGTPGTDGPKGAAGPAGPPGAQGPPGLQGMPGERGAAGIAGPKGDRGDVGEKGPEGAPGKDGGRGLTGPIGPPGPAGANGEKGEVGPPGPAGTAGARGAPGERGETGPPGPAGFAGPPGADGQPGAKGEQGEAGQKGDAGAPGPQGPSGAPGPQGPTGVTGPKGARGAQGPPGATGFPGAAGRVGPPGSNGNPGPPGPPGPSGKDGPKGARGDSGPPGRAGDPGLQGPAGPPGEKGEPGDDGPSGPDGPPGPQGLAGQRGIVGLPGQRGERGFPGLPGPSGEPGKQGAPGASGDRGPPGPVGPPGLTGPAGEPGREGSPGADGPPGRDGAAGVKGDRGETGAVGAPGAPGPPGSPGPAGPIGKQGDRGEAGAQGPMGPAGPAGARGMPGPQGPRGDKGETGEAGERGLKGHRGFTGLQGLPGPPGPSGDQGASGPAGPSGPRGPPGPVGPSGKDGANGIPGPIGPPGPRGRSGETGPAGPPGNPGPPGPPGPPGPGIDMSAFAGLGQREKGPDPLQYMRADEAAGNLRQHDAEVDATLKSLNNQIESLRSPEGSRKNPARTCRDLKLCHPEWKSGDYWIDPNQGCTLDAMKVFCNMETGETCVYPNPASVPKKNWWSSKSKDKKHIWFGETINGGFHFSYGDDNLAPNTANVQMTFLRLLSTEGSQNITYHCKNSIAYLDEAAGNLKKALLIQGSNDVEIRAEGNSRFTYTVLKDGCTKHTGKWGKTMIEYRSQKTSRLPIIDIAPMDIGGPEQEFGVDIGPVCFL
Assay: ELISA; solid phase assay: collagens (50 µg/mL) or fibronectin (10 µg/mL) immobilised on a 96-well plate; DDR2-Fc in 0.05 mg/mL κ-casein in PBS-T, 3 h at room temperature; detected by goat anti-human IgG (Fc specific)-HRP; Kd by Scatchard plot
Conditions: both partners purified

B1: Recombinant human DDR2-Fc chimera protein (Fc fusion, UniProt Q16832 22-399, looked up)
chain: KAQVNPAICRYPLGMSGGQIPDEDITASSQWSESTAAKYGRLDSEEGDGAWCPEIPVEPDDLKEFLQIDLHTLHFITLVGTQGRHAGGHGIEFAPMYKINYSRDGTRWISWRNRHGKQVLDGNSNPYDIFLKDLEPPIVARFVRFIPVTDHSMNVCMRVELYGCVWLDGLVSYNAPAGQQFVLPGGSIIYLNDSVYDGAVGYSMTEGLGQLTDGVSGLDDFTQTHEYHVWPGYDYVGWRNESATNGYIEIMFEFDRIRNFTTMKVHCNNMFAKGVKIFKEVQCYFRSEASEWEPNAISFPLVLDDVNPSARFVTVPLHHRMASAIKCQYHFADTWMMFSEITFQSDAAMYNNSEALPTSPMAPTTYDPMLKVDDSNTR
notes: discoidin domain receptor 2, human; No catalogue number printed; Probably the extracellular domain of DDR2 joined to a human IgG Fc; Detected by goat anti-human IgG (Fc specific)-HRP; source: bought: Sino Biological
- Kd: 2 to 5 nM
